This data set concerns the molecule itself. As to the kind of experiment: SEC. (In general: SEC sorts molecules by how far they enter the pores of the column.)

This note sets out measurements from paper PMC12753827 (Nature Communications, 2025).

In general, stoichiometry N refers to the number of molecules, sites or subunits per partner or assembly.

B1: CeLGRwt (full-length C. elegans LGR) (receptor)
chain: QNALSLAQTKHSCMALKAEDGEGCTCKQTKRYGQPECCCMGLIVSQLPTNLTADVGYLYLHNTSISVITPNFFDKFPSIRELEIDNSAHLEHIDGSSLSVLSKLRKLSVVKCPNLREISGKLLVNNTRIQNVILKNNGLATMPSLRMTDAHHVLLDRIDLSGNKIKFISDSKVRNVKARTVVLSENKLIEISGYAFTESQFLKLKLNNNPDLRSLSVDAFKNMAGLQTLDLSHTSIDTLPINGLKKLKTLILNDVPTLKSLPSVLSFTDLETAHFTYPHHCCLFKYVDDVTMNDNGKYQRNAKEIHKRICDKREQQKVARRRKRETSGIDFLDMLLKEWTDNSTYTGPDDADDDELPPFVEIGAEPCQSIGEEVQKYYSNITCYPQPDALNPCENIVGYPFLRIAVWVVCLAAIVGNIIVWALLGIVYEKRMRMHYLYMINMSVADMVTGIYLAVLAIADAKMSDEYYRHAVWWQTGWGCRAAGFLAVFASELGIISMFLIAFEMSYNTRQSFRGRRLSPKVGVLLMIGGWLFAIIMAILPWFDVSSYSESSVCLPLRAATIFDKSYLIFGLSFNFLAFAAMALSYGFIVKMLKENETREEDRALITKMTVLVVTDLICWFPTLFFGFTATIGFPLLSLSSAKFVLVFFFPINAFANPFLYVFFTEVIQHRVRSKTLPVIRRITTGPLNAASSLSNFYHSQPPGAHRRSRDEPTSPSGMHLAVTQTTSLNSTPRGSDVSRASDGMLFDYDRRASASPRVSFDIPISPTTPRSDRKNRISLLKRIVSSIPEVSDLSEHSSESHHEHVPHPRRKLRSSLNRILALGRRQEGSADSGRGSIASSAGSRDQNERVSLTSNASSILSPLLSPTNSNILILPPEPSKNRRKSTPAIPLLVVSDCS
With B1, the “stoichiometry N” value amounted to 2.
